# Results from patent publication US20120083036A1, “POLYSACCHARIDE TRANSFERASE” (ADELAIDE RESEARCH AND INNOVATION PTY LTD, priority 2006, published 2012).
# “Also recorded” adds a separate entry of the source. Read-outs that look alike come from different tables or passages of the source.
# B1: HvXET5 (Hordeum vulgare) (protein)
# chain: APPRKPVDVPFEKNYVPTWAEDHIHYVNGGREVQLSLDKTTGTGFQTRGSYLFGHFSMHIKLVGGDSAGTVTAFYLSSQNSEHDEIDFEFLGNRTGQPYILQTNVFSGGKGDREQRIYLWFDPTKDYHSYSVLWNLYMIAFFVDDTPIRVFKNSKDLGVRYPFDQPMKLYSSLWNADDWATRGGREKTDWSKAPFVASYRGFHVDGCEASAEAKLCATQGARWWDQPEFQDLDAAQYRRLAWVRKEHTIYNYCTDRERYAAMSPECKRDRDV
# B2: HvXET5: barley xyloglucan xyloglucosyl transferase (XET isoenzyme) purified from extracts of 7-day-old barley seedlings (protein)
# chain: MKATAGALLAVVATVLLRGIAAAPPRKPVDVPFEKNYVPTWAEDHIHYVNGGREVQLSLDKTTGTGFQTRGSYLFGHFSMHIKLVGGDSAGTVTAFYLSSQNSEHDEIDFEFLGNRTGQPYILQTNVFSGGKGDREQRIYLWFDPTKDYHSYSVLWNLYMIAFFVDDTPIRVFKNSKDLGVRYPFDQPMKLYSSLWNADDWATRGGREKTDWSKAPFVASYRGFHVDGCEASAEAKLCATQGARWWDQPEFQDLDAAQYRRLAWVRKEHTIYNYCTDRERYAAMSPECKRDRDV
# modifications: Hordeum vulgare
# notes: barley xyloglucan xyloglucosyl transferase (XET isoenzyme) purified from extracts of 7-day-old barley seedlings
# What was measured:
# HvXET5 [1] = target: T1, HvXET5 (Hordeum vulgare, UniProt P93668); details: 1 nM HvXET5, pH 6
# Protocol: The effect of Ca^2+ (as calcium chloride) and Mg^2+ (as magnesium sulfate), both in 0-15 mM concentration ranges, and of EDTA in a 0-20 mM concentration range, were determined by incubating 1 nM HvXET5 in 100 mM succinate buffer, pH 6. Enzyme activities were determined radiometrically as specified above, in triplicate and with a standard error of 8-10%.
# HvXET5 [2] = target: T1, HvXET5; assay: pH optimum and enzyme stability of HvXET5; assay type: biochemical, barley (Hordeum vulgare L., cv. Clipper)
# Protocol: The effect of pH on the activity of HvXET5 was determined by incubating 1 nM HvXET5 at 30° C. for 60 min in 50 mM citric acid/100 mM sodium dihydrophosphate (McIlvaine) buffers, pH 4.0-8.5 in the presence of 0.02% (w/v) BSA. […] The thermal stability of HvXET5 was determined after 15 min incubation at 0-70° C. The freeze/thaw stability of HvXET5 at 1 nM concentration was determined after three cycles of freezing (−80° C.) and thawing (4° C.), each of 3 min duration. Activity was subsequently measured at 30° C. in 100 mM ammonium acetate buffer, pH 6, containing 5 mM calcium chloride, without and with the addition of 10% (v/v) glycerol. Enzyme activity was determined radiometrically as specified above, and expressed as % activity relative to maximal activity. Assays were performed in triplicate and standard errors of 8-14% were observed.
# [3] = substrate: OC[C@@H](O)[C@@H](O[C@@H]1O[C@H](CO[C@H]2OC[C@@H](O)[C@H](O)[C@H]2O)[C@@H](O[C@@H]2O[C@H](CO[C@H]3OC[C@@H](O)[C@H](O)[C@H]3O)[C@@H](O[C@@H]3O[C@H](CO[C@H]4OC[C@@H](O)[C@H](O)[C@H]4O)[C@@H](O)[C@H](O)[C@H]3O)[C@H](O)[C@H]2O)[C@H](O)[C@H]1O)[C@H](O)[C@@H](O)CO; assay: Km and kcat constants of HvXET5; assay type: biochemical, barley (Hordeum vulgare L., cv. Clipper); details: other: acceptor substrate
# HvXET5 [4] = target: T1, HvXET5; assay: Radiometric activity assay of HvXET5 with TXG and [3H]-labelled XXXGol; assay type: biochemical, barley (Hordeum vulgare L., cv. Clipper); details: purified enzyme; 30° C., pH 6.0, 0.3% (w/v) TXG
# Protocol: The activity of HvXET5 during enzyme purification was determined radiometrically at 30° C. in 100 mM succinate or ammonium acetate buffers, pH 6.0, containing 5 mM calcium chloride, 0.3% (w/v) TXG and [^3H]-labelled xyloglucan-derived saccharide heptaitol (XXXGol, specific radioactivity 83 MBq·μmol^−1) (Fry, et al., Biochem. J. 282, 821-828, 1992) with approximately 30,000 dpm per reaction mixture. The radioactivity incorporated in reaction products was counted on 2×1 cm Whatman chromatography 3MM paper strips in plastic vials and using LSC6500 Scintillation counter (Beckman, Fullerton, USA) with approximately 48% efficiency for tritium, using EcoLume scintillation fluid, and with 70% quenching. Enzyme activity of HvXET5 during purification is expressed in katals, where 1 kat represents 1 mol of product formed per s; specific activity is expressed in pkat·mg^−1 protein.
# [5] = concentrations between 5 and 15 mM
molecule,measurement,setting,value
"O=S(=O)([O-])[O-].[Mg+2] [Mg^2+, magnesium sulfate]",Inhibition of HvXET5 activity,HvXET5 [1]; [5],3-4%
OCC(O)CO [glycerol],Effect on HvXET activity after freeze-thawing cycles,HvXET5 [2]; 10% (v/v) addition,no effect
"ethylenediamine tetraacetic (disodium salt, dihydrate) [EDTA]",Inhibition of HvXET5 activity,HvXET5 [1]; 2-20 mM concentration ranges,approximately 30%
"[Ca+2].[Cl-].[Cl-] [Ca^2+, calcium chloride]",Stimulation of HvXET5 activity,HvXET5 [1]; [5],7-8%
B1,Km,[3],69·10^−6 M
B2,Specific activity,HvXET5 [4],"3,630 pkat·mg^−1"
same,Activity at 0° C. relative to activity observed at 30° C.,HvXET5 [2]; 0° C.,approximately 40%
same,pH optimum,"HvXET5 [2]; 30° C., McIlvaine buffers pH 4.0-8.5",6.0
same,Freeze/thaw stability,HvXET5 [2]; several freeze-thaw cycles,did not lose activity
same,Storage stability (retention of activity),HvXET5 [2]; stored at −20° C.,retained its activity for at least a year; also recorded: remained more or less constant for at least a year
same,Effect of buffer ionic strength on activity,"HvXET5 [2]; succinate, ammonium acetate or sodium phosphate buffers, each at 50-200 mM",unaffected
